Laboratory results from patent publication US20200055896A1, “SUBSTRATES RECOGNIZED BY FIBROBLAST ACTIVATION PROTEIN (FAP) AND METHODS OF USING THE SAME” (GENENTECH, INC., priority 2017, published 2020).
No end group written: not given here.

Legend:
[1] = molecular target: T1, FAP endopeptidase activity in the plasma (Mus musculus, UniProt P97321); experiment: FRET-quench assay: probe cleavage in mouse plasma (Fap WT, heterozygous, KO); assay type: biochemical, mice
T1 construct: the extracellular domain encoding the active enzyme can be shed from the cell surface; from tissue; host or cells: mouse plasma (C57BL/6 background; Fap +/+, +/-, -/-)
T1 sequence (P97321 24-761 limits assumed): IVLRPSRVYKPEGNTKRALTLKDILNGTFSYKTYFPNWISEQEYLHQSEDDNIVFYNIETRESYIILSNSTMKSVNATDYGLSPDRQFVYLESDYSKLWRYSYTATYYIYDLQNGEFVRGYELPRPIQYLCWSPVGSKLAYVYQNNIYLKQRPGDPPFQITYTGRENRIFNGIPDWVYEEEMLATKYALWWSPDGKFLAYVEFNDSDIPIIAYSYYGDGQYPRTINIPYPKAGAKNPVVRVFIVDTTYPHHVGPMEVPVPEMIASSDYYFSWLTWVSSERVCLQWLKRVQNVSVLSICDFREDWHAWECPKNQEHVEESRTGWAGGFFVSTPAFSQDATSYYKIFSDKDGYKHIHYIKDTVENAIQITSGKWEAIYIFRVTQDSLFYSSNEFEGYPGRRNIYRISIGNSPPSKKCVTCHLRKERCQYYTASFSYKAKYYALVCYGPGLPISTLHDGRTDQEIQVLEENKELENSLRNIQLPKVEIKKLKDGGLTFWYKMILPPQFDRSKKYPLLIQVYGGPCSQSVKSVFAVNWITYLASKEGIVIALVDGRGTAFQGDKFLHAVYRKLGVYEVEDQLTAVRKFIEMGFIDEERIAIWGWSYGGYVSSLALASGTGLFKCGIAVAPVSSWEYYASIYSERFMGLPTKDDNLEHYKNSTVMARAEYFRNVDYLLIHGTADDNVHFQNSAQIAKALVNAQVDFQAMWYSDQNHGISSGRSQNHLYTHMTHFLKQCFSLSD
Experimental: Mouse plasma samples were prepared in K3-EDTA MiniCollect tubes (Greiner Bio-One, 450475) and frozen immediately at −80° C. prior to analysis. Human serum samples were obtained from healthy donors or purchased from Discovery Life Sciences, Inc. (Los Osos, Calif.).
(§1) Peptides of the region flanking the C-terminal human FGF21 cleavage site (VGPSQG) or a variant with D-alanine at P2 (VaPSQG) were synthesized (Anaspec, Inc.), containing an amine-terminal donor (HyLite Fluor 488 or Cy5.5 for aP NIRF) and a dark quencher-acceptor (QXL 520 or QSY21 for aP NIRF) conjugated to a supplementary C-terminal lysine. ANPFAP (Bioconjugate Chem 23:1704-11) and aP NIRF were synthesized by CPC Scientific (Sunnyvale, Calif.). Assays were conducted at 37° C. in 50 mM HEPES (pH 7.2), 150 mM NaCl, 1 mM EDTA, 0.1 mg/ml BSA. The excitation/emission wavelengths of cleaved peptide are 490/520 nm or 675/695 nm for ANPFAP and aP NIRF. Fluorescence was monitored on a Tecan M1000 Pro plate reader in kinetic mode. Except where indicated otherwise, measurements of serum or plasma FAP activity were performed with the peptide substrate concentration at 6 μM and a 10-fold dilution of serum or plasma in assay buffer.

[2] = tested on: human or mouse recombinant FAP; experiment: Michaelis-Menten kinetics of GP and aP cleavage by recombinant FAP; assay type: biochemical; conditions: corrected for active enzyme concentration
Experimental: Michaelis-Menten kinetic measurements were carried out using 5 nM human or mouse recombinant FAP, with a series of peptide substrate titrations. Initial rate of substrate hydrolysis was determined using the Magellan software on a Tecan M1000 Pro plate reader and kinetic parameters were modeled using nonlinear regression analysis with GraphPad Prism software. Standard error was calculated from three experimental replicates.
As described by Copeland ((2000) Enzymes: a practical introduction to structure, mechanism, and data analysis, 2nd ed., J. Wiley, New York) the active enzyme concentration was determined from the x-intercept.

recombinant mouse FAP = molecular target: T2, recombinant mouse FAP (Mus musculus, UniProt P97321); experiment: FRET-quench assay: probe cleavage by recombinant mouse FAP; assay type: biochemical; conditions: 1 nM recombinant mouse FAP; 3 μM peptide
T2 construct: (residues L26-D760 and L26-D761, respectively); octa-His (N); made in house; host or cells: transiently transfected CHO cells (conditioned media)
T2 sequence (P97321 26-761): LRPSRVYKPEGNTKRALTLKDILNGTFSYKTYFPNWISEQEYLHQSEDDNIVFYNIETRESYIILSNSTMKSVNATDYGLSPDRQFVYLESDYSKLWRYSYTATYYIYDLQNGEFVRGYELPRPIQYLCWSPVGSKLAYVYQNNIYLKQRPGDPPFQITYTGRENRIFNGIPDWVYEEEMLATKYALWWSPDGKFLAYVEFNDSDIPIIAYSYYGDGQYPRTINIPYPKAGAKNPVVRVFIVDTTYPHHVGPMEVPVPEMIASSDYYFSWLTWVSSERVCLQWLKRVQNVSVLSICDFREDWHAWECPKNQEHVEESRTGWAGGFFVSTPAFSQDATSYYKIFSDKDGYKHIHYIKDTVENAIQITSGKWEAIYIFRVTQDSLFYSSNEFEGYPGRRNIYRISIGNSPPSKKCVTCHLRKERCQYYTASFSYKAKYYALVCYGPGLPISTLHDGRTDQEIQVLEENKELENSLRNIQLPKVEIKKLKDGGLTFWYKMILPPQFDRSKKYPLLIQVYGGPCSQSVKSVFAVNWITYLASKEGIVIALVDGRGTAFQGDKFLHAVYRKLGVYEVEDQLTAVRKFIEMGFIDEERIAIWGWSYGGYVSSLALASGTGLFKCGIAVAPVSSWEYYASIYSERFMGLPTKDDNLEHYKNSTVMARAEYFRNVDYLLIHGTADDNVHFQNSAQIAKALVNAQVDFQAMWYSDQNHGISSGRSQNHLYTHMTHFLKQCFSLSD
Excerpt: Human prolyl oligopeptidase (PREP, 4308-SE), DPPIV (1180-SE), DPP9 (5419-SE), and DPPII/DPP7 (3438-SE) proteins were purchased from R&D Systems. Human DPP8 (BML-SE527) protein was purchased from Enzo Life Sciences. N-terminal octa-His-tagged human and mouse FAP proteins containing the extracellular domain (residues L26-D760 and L26-D761, respectively) were purified from the conditioned media of transiently-transfected CHO cells, by immobilized metal affinity chromatography (IMAC), followed by size exclusion chromatography (SEC).
as §1, with “Except where indicated otherwise, measurements of serum or plasma FAP activity were performed with the peptide substrate concentration at 6 μM and a 10-fold dilution of serum or plasma in assay buffer.” left out

| Substance | probe cleavage in plasma ([1]; Fap KO plasma, plasma diluted 10-fold) | probe cleavage signal in plasma ([1]; WT plasma, plasma diluted 10-fold) | probe cleavage signal in plasma ([1]; heterozygous plasma, plasma diluted 10-fold) | Km relative to parental GP peptide [2] | decrease in kcat relative to GP peptide [2] | probe cleavage activity in plasma ([1]; plasma from Fap heterozygous mice, 3 μM peptide) | probe cleavage signal in plasma ([1]; plasma from WT (Fap+/+) mice, 3 μM peptide) | probe cleavage activity in plasma ([1]; plasma from homozygous Fap KO mice, 3 μM peptide) | cleavage by recombinant mouse FAP (recombinant mouse FAP) |
| --- | --- | --- | --- | --- | --- | --- | --- | --- | --- |
| aP probe: FGF21-based peptide VaPSQG (D-alanine at P2) with HyLite Fluor 488 donor and QXL 520 quencher | no cleavage | clear signal | intermediate | essentially unchanged | seven to eight-fold decrease |  |  |  |  |
| GP probe: human FGF21 cleavage-site peptide VGPSQG with amine-terminal HyLite Fluor 488 donor and QXL 520 quencher on supplementary C-terminal lysine ({HyLite Fluor 488}-VGPSQGK(QXL 520)) |  |  |  |  |  | approximately half the activity as that from WT mice | strong signal | even lower, but significant activity | cleaved |
